Tested on: Escherichia coli TOP10
Experiment: shrunken log2 fold change of peptide-encoding DNA abundance (4.5 h post-induction vs induction); higher = less antimicrobial activity (less host growth inhibition)
Conditions: time post-induction: 4.5 h; library: site-saturation at positions 5, 18, 19, 20
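Also: peptides expressed intracellularly from a pBAD plasmid library in pooled LB shake-flask culture, induced with 0.3% L-arabinose, DNA abundance read by NGS, three biological replicates, DESeq2 with apeglm shrinkage.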

| Sequence | shrunken log2 fold change |
| --- | --- |
| RRIRIRPPRLPRPRPRPEMFPRP | 0.0821 |
| RRIRIRPPRLPRPRPRPEMPPRP | 0.0112 |
| RRIRIRPPRLPRPRPRPEQCPRP | -0.122 |
| RRIRIRPPRLPRPRPRPEQMPRP | 0.224 |
| RRIRIRPPRLPRPRPRPEQTPRP | 0.0649 |
| RRIRIRPPRLPRPRPRPESAPRP | 0.0116 |
| RRIRIRPPRLPRPRPRPESMPRP | 0.0174 |
| RRIRIRPPRLPRPRPRPEVGPRP | 0.0138 |
| RRIRIRPPRLPRPRPRPEVPPRP | -0.0152 |
| RRIRIRPPRLPRPRPRPEWPPRP | 0.0836 |
| RRIRIRPPRLPRPRPRPFAAPRP | -0.258 |
| RRIRIRPPRLPRPRPRPFAMPRP | -0.98 |
| RRIRIRPPRLPRPRPRPFAYPRP | -0.396 |
| RRIRIRPPRLPRPRPRPFCTPRP | -0.542 |
| RRIRIRPPRLPRPRPRPFDWPRP | 0.305 |
| RRIRIRPPRLPRPRPRPFFAPRP | 0.073 |
| RRIRIRPPRLPRPRPRPFGDPRP | -0.0112 |
| RRIRIRPPRLPRPRPRPFGKPRP | -0.0569 |
| RRIRIRPPRLPRPRPRPFGSPRP | 0.00777 |
| RRIRIRPPRLPRPRPRPFHEPRP | -0.0627 |
| RRIRIRPPRLPRPRPRPFKAPRP | -0.431 |
| RRIRIRPPRLPRPRPRPFKVPRP | -0.0829 |
| RRIRIRPPRLPRPRPRPFMMPRP | 0.0298 |
| RRIRIRPPRLPRPRPRPFMVPRP | -0.975 |
| RRIRIRPPRLPRPRPRPFNFPRP | -0.31 |

| Sequence | shrunken log2 fold change |
| --- | --- |
| RRIRIRPPRLPRPRPRPFNPPRP | -0.0657 |
| RRIRIRPPRLPRPRPRPFPPPRP | -0.353 |
| RRIRIRPPRLPRPRPRPFRIPRP | -0.103 |
| RRIRIRPPRLPRPRPRPFSFPRP | -0.742 |
| RRIRIRPPRLPRPRPRPFTMPRP | -0.79 |
| RRIRIRPPRLPRPRPRPFVGPRP | -0.134 |
| RRIRIRPPRLPRPRPRPFYSPRP | -0.476 |
| RRIRIRPPRLPRPRPRPGADPRP | -0.193 |
| RRIRIRPPRLPRPRPRPGAKPRP | 0.126 |
| RRIRIRPPRLPRPRPRPGCGPRP | 0.349 |
| RRIRIRPPRLPRPRPRPGCMPRP | -0.134 |
| RRIRIRPPRLPRPRPRPGCQPRP | -0.0196 |
| RRIRIRPPRLPRPRPRPGDCPRP | -0.185 |
| RRIRIRPPRLPRPRPRPGDLPRP | -0.223 |
| RRIRIRPPRLPRPRPRPGEDPRP | 0.00101 |
| RRIRIRPPRLPRPRPRPGENPRP | -0.0334 |
| RRIRIRPPRLPRPRPRPGEVPRP | 0.0961 |
| RRIRIRPPRLPRPRPRPGFCPRP | 0.135 |
| RRIRIRPPRLPRPRPRPGFIPRP | -0.391 |
| RRIRIRPPRLPRPRPRPGIGPRP | 0.127 |
| RRIRIRPPRLPRPRPRPGILPRP | -0.128 |
| RRIRIRPPRLPRPRPRPGKTPRP | -0.126 |
| RRIRIRPPRLPRPRPRPGLPPRP | 0.209 |
| RRIRIRPPRLPRPRPRPGLYPRP | -0.0503 |
| RRIRIRPPRLPRPRPRPGMGPRP | 0.132 |

| Sequence | shrunken log2 fold change |
| --- | --- |
| RRIRIRPPRLPRPRPRPGNDPRP | -0.0662 |
| RRIRIRPPRLPRPRPRPGPAPRP | 0.383 |
| RRIRIRPPRLPRPRPRPGPHPRP | 0.0135 |
| RRIRIRPPRLPRPRPRPGPQPRP | 0.0436 |
| RRIRIRPPRLPRPRPRPGRNPRP | 0.0581 |
| RRIRIRPPRLPRPRPRPGSDPRP | -0.209 |
| RRIRIRPPRLPRPRPRPGSEPRP | -0.187 |
| RRIRIRPPRLPRPRPRPGSWPRP | 0.227 |
| RRIRIRPPRLPRPRPRPGTSPRP | -0.0281 |
| RRIRIRPPRLPRPRPRPGTWPRP | -0.475 |
| RRIRIRPPRLPRPRPRPGWMPRP | 0.0116 |
| RRIRIRPPRLPRPRPRPGYDPRP | -0.576 |
| RRIRIRPPRLPRPRPRPHADPRP | -0.178 |
| RRIRIRPPRLPRPRPRPHANPRP | -0.181 |
| RRIRIRPPRLPRPRPRPHCEPRP | -1.54 |
| RRIRIRPPRLPRPRPRPHCNPRP | -0.784 |
| RRIRIRPPRLPRPRPRPHECPRP | -0.164 |
| RRIRIRPPRLPRPRPRPHEFPRP | -0.241 |
| RRIRIRPPRLPRPRPRPHENPRP | -0.581 |
| RRIRIRPPRLPRPRPRPHEWPRP | 0.0272 |
| RRIRIRPPRLPRPRPRPHFMPRP | -0.685 |
| RRIRIRPPRLPRPRPRPHFQPRP | -1.78 |
| RRIRIRPPRLPRPRPRPHGQPRP | -0.0468 |
| RRIRIRPPRLPRPRPRPHIHPRP | -0.811 |
| RRIRIRPPRLPRPRPRPHIRPRP | -0.297 |

— the supplement of paper PMC9112550, “Optimization of the antimicrobial peptide Bac7 by deep mutational scanning” (BMC Biology, 2022)
